From paper PMC4939424 (2016)

B1: GST-fused PI3KAP/XB130 C-terminal fragment, amino acid residues 511-843 (GST-del1) (protein)
chain: LPSRDCQDDLYDDVEVSELIAVVEPAEEAAPAVDANSGSEPDRVYLDLTPVKSFLHSSSEAQAQASLPAVPHQDDVAETLTVDPKPGTTPEEPHTESPGDPEVQQRQPEVQESSEPIEPTPRITMVKLQAEQQRISFPANCPDTMASAPIAASPPVKEKLRVTSAEIKLGKNRTEAEVKRYTEEKERLERSKEEIRGHLAQLRREKRELKETLLRCTDKGVLAKLEQTLKKIDEECRMEESRRVDLELSIMEVKDNLKKAEAGPVTLGTTVDTTHLDNMSPRPQPKAATPNPPPDSTPVNSASVLKNRPLSVMVTGKGTVLQKAKEWEKKGAS
B2: GST-fused PI3KAP/XB130 fragment, GST-del1 without the C-terminal 70 amino acids (GST-del2) (protein)
chain: LPSRDCQDDLYDDVEVSELIAVVEPAEEAAPAVDANSGSEPDRVYLDLTPVKSFLHSSSEAQAQASLPAVPHQDDVAETLTVDPKPGTTPEEPHTESPGDPEVQQRQPEVQESSEPIEPTPRITMVKLQAEQQRISFPANCPDTMASAPIAASPPVKEKLRVTSAEIKLGKNRTEAEVKRYTEEKERLERSKEEIRGHLAQLRREKRELKETLLRCTDKGVLAKLEQTLKKIDEECRMEESRRVDLELSIMEVKDNLKKAEAG
B3: GST-fused C-terminal 70 amino acid residues of PI3KAP/XB130 (GST-del3) (protein)
chain: PVTLGTTVDTTHLDNMSPRPQPKAATPNPPPDSTPVNSASVLKNRPLSVMVTGKGTVLQKAKEWEKKGAS

Biological target: Actin filaments (F-actin) polymerized in vitro from rabbit skeletal muscle actin (Oryctolagus cuniculus (Rabbit), UniProt P68135)
Test: F-actin co-sedimentation (pelleting)

| Binder | binding result |
| --- | --- |
| B1 | binds |
| B2 | no binding |
| B3 | binds |
